From US6531296 (UNIVERSITY OF NORTH CAROLINA AT CHAPEL HILL, dated 2003) come the findings set out here.

For this experiment, the target named is T1, Src protein (p60^src), in vitro translated (UniProt P12931 2-536, limits assumed).
T1 construct: also called c-Src
The experiment is described as follows: in vitro translated Src on Rb-GST fusion proteins; data not shown. The method, then: The same procedure was followed for Rb in vitro binding assays, except that the Rb-GST fusion proteins were incubated in the in vitro translated forms of Rak in NP-40 buffer containing 0.5% fraction V bovine serum albumin (Boehringer Mannheim). After three washes with the same buffer, bound proteins were analyzed by SDS-PAGE and detected by autoradiography. Rak was in vitro translated using the TnT-coupled transcription/translation system (Promega) with 2 ug of the pAlt-Rak plasmid. The Rak (1–152) construct was prepared by digesting the pAlt-Rak plasmid with EcoRI to obtain the 5' EcoRI fragment of Rak.
An in vitro binding reaction was then used to further identify the essential components for the Rak-Rb interaction. In vitro translated Rak was incubated with two Rb-GST fusion proteins, where one encoded amino acids 379–928, spanning the A/B pocket and carboxy-terminus (RbABC), while the other fusion protein encoded amino acids 780–928, and represented only the carboxy-terminus (RbC). The in vitro translated full-length Rak protein bound efficiently to the RbABC fusion protein, and approximately 5-fold less to the RbC protein (FIG. 5B, upper panel). […] As a control, the Src protein was in vitro translated and subjected to the same binding reaction, and no binding of Src to any portion of Rb was detected (data not shown).

B1: GST-RbC, Rb fusion protein encoding amino acids 780-928 (COOH-terminal domain only) (other, UniProt P06400 780-928, looked up)
chain: SPIPHIPRSPYKFPSSPLRIPGGNIYISPLKSPYKISEGLPTPTKMTPRSRILVSIGESFGTSEKFQKINQMVCNSDRVLKRSAEGSNPPKPLKKLRFDIEGSDEADGSKHLPGESKFQQKLAEMTSTRTRMQKQKMNDSMDTSNKEEK
notes: range 780-928; GST fusion prepared like the Rak fusions; also called RbC protein; Rb-GST fusion protein; not shown: Glutathione S-transferase encoded by the pGEX-4T plasmid (Pharmacia)
B1: the binding result is given as “no binding”.

B2: GST-RbABC, Rb fusion protein encoding amino acids 379-928 (A/B pocket region and COOH-terminal domain) (other, UniProt P06400 379-928, looked up)
chain: MNTIQQLMMILNSASDQPSENLISYFNNCTVNPKESILKRVKDIGYIFKEKFAKAVGQGCVEIGSQRYKLGVRLYYRVMESMLKSEEERLSIQNFSKLLNDNIFHMSLLACALEVVMATYSRSTSQNLDSGTDLSFPWILNVLNLKAFDFYKVIESFIKAEGNLTREMIKHLERCEHRIMESLAWLSDSPLFDLIKQSKDREGPTDHLESACPLNLPLQNNHTAADMYLSPVRSPKKKGSTTRVNSTANAETQATSAFQTQKPLKSTSLSLFYKKVYRLAYLRLNTLCERLLSEHPELEHIIWTLFQHTLQNEYELMRDRHLDQIMMCSMYGICKVKNIDLKFKIIVTAYKDLPHAVQETFKRVLIKEEEYDSIIVFYNSVFMQRLKTNILQYASTRPPTLSPIPHIPRSPYKFPSSPLRIPGGNIYISPLKSPYKISEGLPTPTKMTPRSRILVSIGESFGTSEKFQKINQMVCNSDRVLKRSAEGSNPPKPLKKLRFDIEGSDEADGSKHLPGESKFQQKLAEMTSTRTRMQKQKMNDSMDTSNKEEK
notes: range 379-928; GST fusion prepared like the Rak fusions; also called RbABC fusion protein; Rb-GST fusion protein; not shown: Glutathione S-transferase encoded by the pGEX-4T plasmid (Pharmacia)
In the case of B2, the binding result was “no binding”.
